According to patent US5175251A, “Antimetastatic peptides with laminin activity” (SRI International, priority 1991, dated 1992):

B1: CTAP-III: naturally occurring polypeptide isolated from human platelets that is capable of activating connective tissue cells (protein, UniProt P02775 44-128, looked up)
Connective tissue-activating …: NLAKGKEESLDSDLYAELRCMCIKTTSGIHPKNIQSLEVIGKGTHCNQVEVIATLKDGRKICLDPDAPRIKKIVQKKLAGDESAD
modifications: Connective tissue-activating peptide III

What was measured:
[1] = tested on: B16/F10 cells (murine melanoma); experiment: Cell adhesion assay: tumor cells bound to peptide-coated wells; type: cell-based; settings: summary of Table 1
Protocol: The cell-adhesion assay measures the binding of tumor cells to laminin immobilized on the surface of a culture dish. The peptides of the invention can be substituted for the immobilized laminin to measure the binding constants of the peptides and compare binding constants of the peptides of the invention with laminin or other known laminin peptides. In this assay, solubilized peptides are incubated on tissue culture well plates and nonspecific cell binding is blocked by the addition of bovine serum albumin (BSA). Tumor cells are added to the wells and nonadherent cells are removed by washing with phosphate-buffered saline (PBS). Attached cells may be trypsinized and counted electronically or the cells may be fixed, stained with chemical agents, such as crystal violet solution and the optical density of the solutions determined using a microtiter plate reader in the range from 590-405 nm. Extrapolation of OD to the number of cells bound may be obtained by comparison of readings to a standard curve obtained by incubating various numbers of cells in tissue culture wells for a time sufficient to allow firm attachment but not permit significant cell division (about 5 h), and washing and staining as above. […]

Isoelectric point = type: physicochemical
Excerpt: The anion exchange resin is usually employed in the form of a packed column. The column is equilibrated using conventional techniques and the solution of the cleaved reaction products is loaded onto the column. […] The peptide is eluted by increasing the ionic strength of the buffered solution, typically from 0 to 0.75M NaCl. The column can be regenerated by washing with solutions of NaOH and nonionic detergents to remove any residual contaminating protein or solubilizing agents and equilibrating the column.
For example, when the laminin B1 peptide is fused to CTAP-III(Leu21), an anion exchange column (for example, either Mono-Q or Q Sepharose from Pharmacia) may be employed to separate the two proteins on the basis of differences in their isoelectric points (LamB1 -40(Ser27) peptide=3.65, CTAP-III=7.8). […] Elution of the peptide may be performed with a linear gradient (0 to 0.5M) of NaCl. Pooled fractions of LamB1 -40, typically greater than 90% pure, may optionally be subjected to further purification using hydrophobic interaction chromatography (HIC), gel filtration chromatography, reverse-phase liquid chromatography or combinations thereof.

| Molecule | Binding of metastatic tumor cells compared with YIGSR or CDPGYIGSR [1] | isoelectric point (pI) (Isoelectric point) |
| --- | --- | --- |
| NH2 -Pro-Cys-Pro-Asp-Gly-Pro-Asp-Ser-Gly-Arg-Gln-Phe-Ala-Arg-Ser-Cys-Tyr -Gln-Asp-Pro-Val-Thr-Leu-Gln-Leu-Ala-Ser-Val-Cys-Asp-Pro-Gly-Tyr-Ile-Gly-Ser-Arg-Cys-Asp-Asp-OH (H-PCPDGPDSGRQFARSCYQDPVTLQLASVCDPGYIGSRCDD-OH; cysteine pairing not given here) [LamB1 -40(Ser27), recombinant 40 amino acid laminin B1 peptide, Cys at position 923 replaced with serine] | binds metastatic tumor cells more effectively | 3.65 |
| B1 |  | 7.8 |
